Our source for the stoichiometry N values is PMC6311007.

In this assay the target is porcine CSF1 fused to an antibody Fc region (pCSF1-Fc), produced in egg white of transgenic hens (porcine). Briefly: non-reducing SDS-PAGE; pCSF1-Fc purified from egg white (MabSelect SuRe, SEC), non-reducing SDS-PAGE stained with Instant Blue.

In the case of “porcine CSF1 fused to an antibody Fc region (pCSF1-Fc), produced in egg white of transgenic hens (Fc fusion)”, the stoichiometry N worked out at 2.
